{"source": "FireProtDB (doi:10.1016/j.ijbiomac.2020.03.166)", "proteins": {"B1": {"name": "Peptidyl-prolyl cis-trans isomerase wild type, Q4QII4 (protein)", "chain": "MPTSSWRAEHLLIKHSGSRNPVSRRTGQPTTISYEEAVTELQKWCQSINDGKVTFEEAARQRSDCSSYARGGDLGVFGPGEMMKPFEDATKSLEVGQVSGIVVTDSGVHIIKRIA"}}, "details": "Leishmania major, pH 7.5, potassium phosphate, NaCl, transition: 2, whole UniProt chain shown", "key": {"[1]": {"details": "GdnHCl, fluorescence emission maxima"}, "[2]": {"details": "Urea, fluorescence emission maxima"}}, "note": "Where “and” joins values, the source holds several entries; their conditions need not be identical. Equal values may be shown once.", "data": [{"protein": "B1", "values": [{"measurement": "denaturant m value", "setting": "GdnHCl, CD", "result": 3.32, "unit": "kcal/mol/M"}, {"measurement": "denaturant midpoint (higher = more stable)", "setting": "GdnHCl, CD", "result": 0.98, "unit": "M"}, {"measurement": "unfolding free energy", "setting": "GdnHCl, CD", "result": 3.27, "unit": "kcal/mol"}, {"measurement": "denaturant m value", "setting": "GdnHCl, anisotropy", "result": 3.87, "unit": "kcal/mol/M"}, {"measurement": "denaturant midpoint (higher = more stable)", "setting": "GdnHCl, anisotropy", "result": 1.16, "unit": "M"}, {"measurement": "unfolding free energy", "setting": "GdnHCl, anisotropy", "result": 4.51, "unit": "kcal/mol"}, {"measurement": "denaturant m value", "setting": "[1]", "result": 4.3, "unit": "kcal/mol/M"}, {"measurement": "denaturant midpoint (higher = more stable)", "setting": "[1]", "result": 1.1, "unit": "M"}, {"measurement": "unfolding free energy", "setting": "[1]", "result": 4.74, "unit": "kcal/mol"}, {"measurement": "denaturant m value", "setting": "GdnHCl, fluorescence intensity", "result": 4.61, "unit": "kcal/mol/M"}, {"measurement": "denaturant midpoint (higher = more stable)", "setting": "GdnHCl, fluorescence intensity", "result": 0.97, "unit": "M"}, {"measurement": "unfolding free energy", "setting": "GdnHCl, fluorescence intensity", "result": 4.48, "unit": "kcal/mol"}, {"measurement": "unfolding enthalpy (calorimetric)", "setting": "Thermal, DSC", "result": "36.6 kcal/mol and 55.1 kcal/mol"}, {"measurement": "denaturant m value", "setting": "Urea, CD", "result": 1.38, "unit": "kcal/mol/M"}, {"measurement": "denaturant midpoint (higher = more stable)", "setting": "Urea, CD", "result": 4.12, "unit": "M"}, {"measurement": "unfolding free energy", "setting": "Urea, CD", "result": 5.69, "unit": "kcal/mol"}, {"measurement": "denaturant m value", "setting": "Urea, anisotropy", "result": 1.2, "unit": "kcal/mol/M"}, {"measurement": "denaturant midpoint (higher = more stable)", "setting": "Urea, anisotropy", "result": 4.15, "unit": "M"}, {"measurement": "unfolding free energy", "setting": "Urea, anisotropy", "result": 4.99, "unit": "kcal/mol"}, {"measurement": "denaturant m value", "setting": "[2]", "result": 1.28, "unit": "kcal/mol/M"}, {"measurement": "denaturant midpoint (higher = more stable)", "setting": "[2]", "result": 4.78, "unit": "M"}, {"measurement": "unfolding free energy", "setting": "[2]", "result": 5.12, "unit": "kcal/mol"}, {"measurement": "denaturant m value", "setting": "Urea, fluorescence intensity", "result": 1.39, "unit": "kcal/mol/M"}, {"measurement": "denaturant midpoint (higher = more stable)", "setting": "Urea, fluorescence intensity", "result": 3.53, "unit": "M"}, {"measurement": "unfolding free energy", "setting": "Urea, fluorescence intensity", "result": 4.91, "unit": "kcal/mol"}]}]}
